From PMC6082341 (2017)
Ends that are not written are not given here.

B1: TNKS2 ARC5 (domain or fragment)
chain: GAMGSDLLRGDAALLDAAKKGCLARVKKLSSPDNVNCRDTQGRHSTPLHLAAGYNNLEVAEYLLQHGADVNAQDKGGLIPLHNAASYGHVDVAALLIKYNACVNATDKWAFTPLHEAAQKGRTQLCALLLAHGADPTLKNQEGQTPLDLVSADDVSALLTAAMPP

Columns and labels:
TNKS2 ARC5 = target: B1; assay: FP
MERIT40 (two peptides) [1] = target: T1, MERIT40 (two peptides) (fluorescein or 5(6)-carboxyfluorescein fluorophore; the fluorescein is linked via β-Ala); assay: FP; MERIT40 I peptide (…)
MERIT40 (two peptides) [2] = target: T1, MERIT40 (two peptides); assay: FP; MERIT40 II peptide (…)

| Kd (TNKS2 ARC5) [nM] | Kd (MERIT40 (two peptides) [1]) [nM] | Kd (MERIT40 (two peptides) [2]) [nM] | Binder |
| --- | --- | --- | --- |
| 390 | – | – | LPHLQRSPPDGQSFRS (also: fluorescein or 5(6)-carboxyfluorescein linked via β-Ala, site not given here) [3BP2 TBM peptide (WT positive control)] |
| – | 530 | 3000 | B1 |
